Measured values taken from publication PMC6566107, “Molecular Analysis of Protein-Protein Interactions in the Ethylene Pathway in the Different Ethylene Receptor Subfamilies” (Frontiers in Plant Science, 2019).
“And” between values parts separate entries of the source, which are not always exact repeats. Equal entries are not always repeated.

T1: Isolated transmembrane domain of AtETR1 (aa 1-157) with C4S and C6S (Arabidopsis thaliana, UniProt P49333 1-157, C4S | C6S)
T1 sequence: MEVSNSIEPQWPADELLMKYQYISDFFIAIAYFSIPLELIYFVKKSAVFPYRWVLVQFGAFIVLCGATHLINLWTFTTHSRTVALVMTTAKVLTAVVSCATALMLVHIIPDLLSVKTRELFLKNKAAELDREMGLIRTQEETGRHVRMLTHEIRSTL

T2: Arabidopsis thaliana EIN2 C-terminus (AtEIN2 479-1294), soluble cytosolic domain (Arabidopsis thaliana, UniProt Q9S814 479-1294, Alexa Fluor 488 succinimidyl-ester label where used as the labeled partner in MST)
T2 construct: source: recombinant, expressed and purified as previously described (Bisson et al., 2016)
T2 sequence (looked up): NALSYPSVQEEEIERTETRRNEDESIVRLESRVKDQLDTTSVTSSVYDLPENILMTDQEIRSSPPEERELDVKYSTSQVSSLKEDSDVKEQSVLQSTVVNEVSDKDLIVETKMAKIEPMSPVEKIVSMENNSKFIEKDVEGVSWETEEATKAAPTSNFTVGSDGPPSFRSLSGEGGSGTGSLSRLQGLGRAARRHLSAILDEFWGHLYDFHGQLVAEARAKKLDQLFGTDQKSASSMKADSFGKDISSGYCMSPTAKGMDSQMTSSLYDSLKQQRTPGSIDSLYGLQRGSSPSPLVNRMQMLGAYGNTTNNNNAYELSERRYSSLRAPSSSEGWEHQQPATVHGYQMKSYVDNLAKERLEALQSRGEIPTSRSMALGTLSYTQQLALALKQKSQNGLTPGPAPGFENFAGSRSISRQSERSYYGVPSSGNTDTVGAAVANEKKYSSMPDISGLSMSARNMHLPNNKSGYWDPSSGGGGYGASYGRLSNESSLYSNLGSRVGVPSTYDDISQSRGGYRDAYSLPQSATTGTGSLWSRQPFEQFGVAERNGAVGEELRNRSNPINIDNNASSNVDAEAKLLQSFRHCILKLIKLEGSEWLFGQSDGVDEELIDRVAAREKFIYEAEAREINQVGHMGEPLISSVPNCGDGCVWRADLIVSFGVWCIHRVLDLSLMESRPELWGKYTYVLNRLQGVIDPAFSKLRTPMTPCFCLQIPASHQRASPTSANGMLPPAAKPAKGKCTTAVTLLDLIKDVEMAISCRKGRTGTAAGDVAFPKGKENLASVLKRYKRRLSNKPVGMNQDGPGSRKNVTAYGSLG

T3: Arabidopsis thaliana Raf-like protein kinase CTR1 (AtCTR1), full-length, fused to mCerulean (Arabidopsis thaliana, UniProt Q05609 1-821, Alexa Fluor 488 succinimidyl-ester label)
T3 construct: CONSTITUTIVE TRIPLE RESPONSE 1 (CTR1), Arabidopsis thaliana, UniProt Q05609, full-length cDNA according to NCBI NM_120454.4; The CTR1 coding region was extended by mCerulean in pET30a; source: E. coli BL21 (DE3) with pRARE, purified (Ni-NTA)
T3 sequence (looked up): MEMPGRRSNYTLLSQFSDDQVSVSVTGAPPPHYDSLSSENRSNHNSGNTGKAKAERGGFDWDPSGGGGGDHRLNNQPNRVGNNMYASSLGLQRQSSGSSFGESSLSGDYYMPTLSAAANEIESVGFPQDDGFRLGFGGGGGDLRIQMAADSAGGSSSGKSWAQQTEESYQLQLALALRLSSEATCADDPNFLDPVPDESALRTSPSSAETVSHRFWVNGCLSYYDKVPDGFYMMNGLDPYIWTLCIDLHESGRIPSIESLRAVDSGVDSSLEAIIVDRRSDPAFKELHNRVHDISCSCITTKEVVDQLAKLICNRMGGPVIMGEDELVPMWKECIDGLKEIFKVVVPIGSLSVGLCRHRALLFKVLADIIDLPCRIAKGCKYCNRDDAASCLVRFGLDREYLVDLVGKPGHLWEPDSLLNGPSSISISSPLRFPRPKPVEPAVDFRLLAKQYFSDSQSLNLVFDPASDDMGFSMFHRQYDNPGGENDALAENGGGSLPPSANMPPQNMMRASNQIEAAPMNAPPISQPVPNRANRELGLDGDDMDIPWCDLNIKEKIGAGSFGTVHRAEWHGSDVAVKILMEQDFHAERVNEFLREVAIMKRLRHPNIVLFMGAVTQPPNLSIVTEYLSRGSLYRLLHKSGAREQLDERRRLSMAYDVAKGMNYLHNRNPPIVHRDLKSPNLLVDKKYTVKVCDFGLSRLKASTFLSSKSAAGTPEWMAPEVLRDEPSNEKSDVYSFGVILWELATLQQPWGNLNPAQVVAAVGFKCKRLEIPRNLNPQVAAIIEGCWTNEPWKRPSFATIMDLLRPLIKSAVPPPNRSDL

B1: Arabidopsis thaliana ethylene receptor ETR2 (AtETR2), full-length, type-II subfamily (receptor, UniProt Q0WPQ2 1-773, looked up)
chain: MVKEIASWLLILSMVVFVSPVLAINGGGYPRCNCEDEGNSFWSTENILETQRVSDFLIAVAYFSIPIELLYFVSCSNVPFKWVLFEFIAFIVLCGMTHLLHGWTYSAHPFRLMMAFTVFKMLTALVSCATAITLITLIPLLLKVKVREFMLKKKAHELGREVGLILIKKETGFHVRMLTQEIRKSLDRHTILYTTLVELSKTLGLQNCAVWMPNDGGTEMDLTHELRGRGGYGGCSVSMEDLDVVRIRESDEVNVLSVDSSIARASGGGGDVSEIGAVAAIRMPMLRVSDFNGELSYAILVCVLPGGTPRDWTYQEIEIVKVVADQVTVALDHAAVLEESQLMREKLAEQNRALQMAKRDALRASQARNAFQKTMSEGMRRPMHSILGLLSMIQDEKLSDEQKMIVDTMVKTGNVMSNLVGDSMDVPDGRFGTEMKPFSLHRTIHEAACMARCLCLCNGIRFLVDAEKSLPDNVVGDERRVFQVILHIVGSLVKPRKRQEGSSLMFKVLKERGSLDRSDHRWAAWRSPASSADGDVYIRFEMNVENDDSSSQSFASVSSRDQEVGDVRFSGGYGLGQDLSFGVCKKVVQLIHGNISVVPGSDGSPETMSLLLRFRRRPSISVHGSSESPAPDHHAHPHSNSLLRGLQVLLVDTNDSNRAVTRKLLEKLGCDVTAVSSGFDCLTAIAPGSSSPSTSFQVVVLDLQMAEMDGYEVAMRIRSRSWPLIVATTVSLDEEMWDKCAQIGINGVVRKPVVLRAMESELRRVLLQADQLL
modifications: Alexa Fluor 488 succinimidyl-ester label where used as the labeled partner in MST
notes: ETR2, Arabidopsis thaliana, UniProt Q0WPQ2, full-length, codon optimized cDNA according to NCBI NM_113216.3; The thrombin site of pGEX-4T-1 was changed to a TEV site (ENLYFQG); No cleavage is described; The purified protein runs at an apparent 120 kDa, so GST is probably still attached; The same construct was used with and without the Alexa Fluor 488 label; source: E. coli C43 (DE3), solubilised …
B2: Arabidopsis thaliana ethylene receptor ETR1 (AtETR1), full-length, type-I subfamily (receptor, UniProt P49333 1-738, looked up)
chain: MEVCNCIEPQWPADELLMKYQYISDFFIAIAYFSIPLELIYFVKKSAVFPYRWVLVQFGAFIVLCGATHLINLWTFTTHSRTVALVMTTAKVLTAVVSCATALMLVHIIPDLLSVKTRELFLKNKAAELDREMGLIRTQEETGRHVRMLTHEIRSTLDRHTILKTTLVELGRTLALEECALWMPTRTGLELQLSYTLRHQHPVEYTVPIQLPVINQVFGTSRAVKISPNSPVARLRPVSGKYMLGEVVAVRVPLLHLSNFQINDWPELSTKRYALMVLMLPSDSARQWHVHELELVEVVADQVAVALSHAAILEESMRARDLLMEQNVALDLARREAETAIRARNDFLAVMNHEMRTPMHAIIALSSLLQETELTPEQRLMVETILKSSNLLATLMNDVLDLSRLEDGSLQLELGTFNLHTLFREVLNLIKPIAVVKKLPITLNLAPDLPEFVVGDEKRLMQIILNIVGNAVKFSKQGSISVTALVTKSDTRAADFFVVPTGSHFYLRVKVKDSGAGINPQDIPKIFTKFAQTQSLATRSSGGSGLGLAISKRFVNLMEGNIWIESDGLGKGCTAIFDVKLGISERSNESKQSGIPKVPAIPRHSNFTGLKVLVMDENGVSRMVTKGLLVHLGCEVTTVSSNEECLRVVSHEHKVVFMDVCMPGVENYQIALRIHEKFTKQRHQRPLLVALSGNTDKSTKEKCMSFGLDGVLLKPVSLDNIRDVLSDLLEPRVLYEGM
modifications: Alexa Fluor 488 succinimidyl-ester label where used as the labeled partner in MST
notes: ETR1, Arabidopsis thaliana, full-length receptor; source: recombinant, expressed and purified as described in Milić et al., 2018, in FosCholine-16

Assays:
[1] = biological target: T1, Isolated transmembrane domain of AtETR1 …; test: MST; ETR2 Alexa488-labeled
[2] = biological target: the molecule itself; test: MST; 40 nM Alexa Fluor 488-labeled receptor (AtETR1 or AtETR2); unlabeled AtETR1 or AtETR2 (4 µM to 0.49 nM) or ETR1-TM C4SC6S (16 µM to 0.98 nM) titrated; 0.0075% (w/v) FosCholine-16; 60% MST power; 1:1 model
[3] = biological target: T2, Arabidopsis thaliana EIN2 C-terminus …; test: MST; 75 nM Alexa Fluor 488-labeled AtEIN2 479-1294; unlabeled AtETR2 titrated 4 µM to 1.95 nM; ambient temperature; 60% MST power; 1:1 model; apparent Kd; settings: both partners purified
[4] = biological target: T3, Arabidopsis thaliana Raf-like protein …; test: MST; Alexa Fluor 488-labeled AtCTR1 (MST buffer 3; 50 nM with AtETR1, 20 nM with AtETR2); unlabeled receptors (MST buffer 2) titrated 4 µM to 0.98 nM; 60% MST power; premium capillaries and 10 min incubation for AtETR2; 1:1 model; settings: both partners purified
[5] = biological target: T2, Arabidopsis thaliana EIN2 C-terminus …; test: MST; 20 nM Alexa Fluor 488-labeled AtETR2 (MST buffer 1: 50 mM HEPES/NaOH pH 7.8, 300 mM NaCl, 5% glycerol, 0.015% FosCholine-16); unlabeled AtEIN2 479-1294 (MST buffer 3) titrated 2 µM to 0.98 nM; 20% MST power; 1:1 model; apparent Kd; settings: both partners purified
[6] = biological target: T1, Isolated transmembrane domain of AtETR1 …; test: MST; ETR1 Alexa488-labeled
[7] = biological target: B1; test: MST; 40 nM Alexa Fluor 488-labeled receptor (AtETR1 or AtETR2); unlabeled AtETR1 or AtETR2 (4 µM to 0.49 nM) or ETR1-TM C4SC6S (16 µM to 0.98 nM) titrated; 0.0075% (w/v) FosCholine-16; 60% MST power; 1:1 model; settings: both partners purified

B1
Kd [1]: 145 nM | Kd [2]: 96 nM | Kd [3]: 147 nM | Kd [4]: 165 nM | Kd [5]: 161 nM

B2
Kd [6]: 491 nM | Kd [2]: 326 nM | Kd [7]: 177 nM and 217 nM | Kd [4]: 169 nM
